Reference: patent US20050147612A1 (published 2005)

How the values were obtained:
FR3exFc = target: T1, FR3exFc (human); experiment: BIAcore, mini-antibody format
T1 construct: Said to be entirely in dimeric form; also called FR3/Fc; FGFR3/Fc

FGFR3 wild type on cells = FGFR3 wild type on cells (human, UniProt P22607 23-806); experiment: cell-based or functional assay
FGFR3 wild type on cells, sequence (P22607 23-806 limits assumed): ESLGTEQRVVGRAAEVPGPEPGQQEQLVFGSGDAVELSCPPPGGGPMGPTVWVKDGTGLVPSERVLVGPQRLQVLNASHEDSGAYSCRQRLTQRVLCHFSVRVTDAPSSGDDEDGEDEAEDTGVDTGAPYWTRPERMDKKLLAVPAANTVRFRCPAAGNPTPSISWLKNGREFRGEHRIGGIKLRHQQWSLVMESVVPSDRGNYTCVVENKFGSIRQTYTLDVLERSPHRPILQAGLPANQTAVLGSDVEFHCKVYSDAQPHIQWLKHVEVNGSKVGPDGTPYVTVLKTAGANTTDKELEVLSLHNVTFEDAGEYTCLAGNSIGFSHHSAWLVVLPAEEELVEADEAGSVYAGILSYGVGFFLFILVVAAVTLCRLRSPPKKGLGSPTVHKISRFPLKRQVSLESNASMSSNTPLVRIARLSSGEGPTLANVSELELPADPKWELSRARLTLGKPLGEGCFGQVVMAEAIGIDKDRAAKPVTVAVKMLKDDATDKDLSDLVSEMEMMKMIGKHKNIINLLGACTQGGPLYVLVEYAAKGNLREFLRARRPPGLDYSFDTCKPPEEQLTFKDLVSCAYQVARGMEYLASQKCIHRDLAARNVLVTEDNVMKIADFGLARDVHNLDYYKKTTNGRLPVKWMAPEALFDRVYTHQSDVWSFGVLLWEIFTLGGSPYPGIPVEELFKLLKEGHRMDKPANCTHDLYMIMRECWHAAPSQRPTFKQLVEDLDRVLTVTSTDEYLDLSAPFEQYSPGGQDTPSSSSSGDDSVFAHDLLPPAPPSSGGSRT

T1 sequence (chain, as listed by the source limits assumed): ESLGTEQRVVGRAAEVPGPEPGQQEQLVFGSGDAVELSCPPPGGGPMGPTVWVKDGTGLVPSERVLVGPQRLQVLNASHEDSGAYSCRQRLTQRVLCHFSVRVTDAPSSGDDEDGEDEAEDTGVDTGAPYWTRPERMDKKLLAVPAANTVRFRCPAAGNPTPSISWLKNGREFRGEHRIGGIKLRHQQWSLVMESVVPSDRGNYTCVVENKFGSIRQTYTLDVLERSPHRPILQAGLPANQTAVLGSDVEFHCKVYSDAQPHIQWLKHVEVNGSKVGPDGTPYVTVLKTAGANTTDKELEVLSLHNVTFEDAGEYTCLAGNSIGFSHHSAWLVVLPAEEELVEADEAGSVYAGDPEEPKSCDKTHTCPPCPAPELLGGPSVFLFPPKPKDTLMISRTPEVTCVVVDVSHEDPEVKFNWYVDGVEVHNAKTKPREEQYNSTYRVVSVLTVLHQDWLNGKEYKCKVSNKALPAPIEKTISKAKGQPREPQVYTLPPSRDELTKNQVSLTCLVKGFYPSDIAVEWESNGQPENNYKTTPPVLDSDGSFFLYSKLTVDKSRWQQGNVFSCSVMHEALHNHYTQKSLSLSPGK

B1: MS-Pro-26-dHLX-MH (other, not shown: a dimerising Fc or GST; small tags and cut ends)
VH: QVQLVQSGAEVKKPGASVKVSCKASGYTFTSYYMHWVRQAPGQGLEWMGWINPNSGGTNYAQKFQGRVTMTRDTSISTAYMELSSLRSEDTAVYYCARGYWYAYFTYINYGYFDNWGQGTLVTVSS
VL: DIALTQPASVSGSPGQSITISCTGTSSDVGGYNYVSWYQQHPGKAPKLMIYDVSNRPSGVSNRFSGSKSGNTASLTISGLQAEDEADYYCQSYDNNSDVVFGGGTKLTVL
modifications: Dimeric Fab mini-antibody: Fab fused to the dHLX helix and the MH tag. These parts are not in the letters.
notes: Fab mini-antibody format Fab-dHLX-MH (dimer of the Fab); also called MSPRO26 Fab-dHLX; MSPRO26 dimeric dHLX format; copies: 2 + 2
Kd (FR3exFc): 2 nM | IC50, FDCP-FGFR3 proliferation assay with FGF9 (FGFR3 wild type on cells): 8 nM

B2: MS-Pro-24-dHLX-MH (other, not shown: a dimerising Fc or GST; small tags and cut ends)
VH: QVQLVQSGAEVKKPGSSVKVSCKASGGTFSSYAISWVRQAPGQGLEWMGGIIPIFGTANYAQKFQGRVTITADESTSTAYMELSSLRSEDTAVYYCARVNHWTYTFDYWGQGTLVTVSS
VL: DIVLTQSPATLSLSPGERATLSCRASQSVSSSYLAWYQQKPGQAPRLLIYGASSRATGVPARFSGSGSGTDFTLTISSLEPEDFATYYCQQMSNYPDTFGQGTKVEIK
modifications: Dimeric Fab mini-antibody: Fab fused to the dHLX helix and the MH tag. These parts are not in the letters.
notes: Fab mini-antibody format Fab-dHLX-MH (dimer of the Fab); copies: 2 + 2
Kd (FR3exFc): 2 nM
